Experimental data published in US20260061022A1 (GI INNOVATION, published 2026).

T1: IgE (Homo sapiens (Human), UniProt P01854 1-427)
T1 construct: also called immunoglobulin E
T1 constant: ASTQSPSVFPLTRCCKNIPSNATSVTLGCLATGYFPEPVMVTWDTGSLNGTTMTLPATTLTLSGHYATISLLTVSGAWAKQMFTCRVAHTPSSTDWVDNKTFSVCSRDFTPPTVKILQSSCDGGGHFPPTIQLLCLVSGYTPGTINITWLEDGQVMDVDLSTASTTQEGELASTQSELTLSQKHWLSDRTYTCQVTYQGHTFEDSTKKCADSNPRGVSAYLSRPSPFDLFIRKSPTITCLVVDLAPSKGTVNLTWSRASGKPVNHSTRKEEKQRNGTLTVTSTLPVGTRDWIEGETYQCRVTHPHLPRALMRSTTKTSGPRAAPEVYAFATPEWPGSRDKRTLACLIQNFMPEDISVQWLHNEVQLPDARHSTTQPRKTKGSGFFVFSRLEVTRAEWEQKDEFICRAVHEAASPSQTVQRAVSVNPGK

T2: IgG Fc gamma receptor IIA (UniProt P12318 36-218, limits assumed)
T2 construct: Bought recombinant protein immobilised on an AR2G biosensor; also called FcγRIIA
T2 sequence (looked up): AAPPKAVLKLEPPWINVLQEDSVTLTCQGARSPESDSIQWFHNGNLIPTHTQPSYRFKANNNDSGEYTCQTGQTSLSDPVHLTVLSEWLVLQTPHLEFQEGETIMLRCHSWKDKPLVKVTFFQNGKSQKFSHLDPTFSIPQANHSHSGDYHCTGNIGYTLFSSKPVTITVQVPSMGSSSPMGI

T3: IgG Fc gamma receptor IIB (UniProt P31994 46-217, limits assumed)
T3 construct: Bought recombinant protein immobilised on an AR2G biosensor; also called FcγRIIB
T3 sequence (looked up): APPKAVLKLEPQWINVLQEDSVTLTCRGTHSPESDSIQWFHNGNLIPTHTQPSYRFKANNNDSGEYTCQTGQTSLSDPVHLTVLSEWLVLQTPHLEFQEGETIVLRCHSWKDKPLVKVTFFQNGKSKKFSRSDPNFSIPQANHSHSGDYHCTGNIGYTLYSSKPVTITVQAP

B1: FcεRIαECD-Fc2ST (Fc fusion)
chain: VPQKPKVSLNPPWNRIFKGENVTLTCNGNNFFEVSSTKWFHNGSLSEETNSSLNIVNAKFEDSGEYKCQHQQVNESEPVYLEVFSDWLLLQASAEVVMEGQPLFLRCHGWRNWDVYKVIYYKDGEALKYWYENHNISITNATVEDSGTYYCTGKVWQLDYESEPLNITVIKAPREKYWLQRNTGRGGEEKKGSKEKEEQEERETKTPECPSHTQPLGVFLFPPKPKDTLMISRTPEVTCVVVDVSQEDPEVQFNWYVDGVEVHNAKTKPREEQFNSTYRVVSVLTVLHQDWLNGKEYKCKVSNKGLPSSIEKTISKAKGQPREPQVYTLPPSQEEMTKNQVSLTCLVKGFYPSDIAVEWESNGQPENNYKTTPPVLDSDGSFFLYSRLTVDKSRWQEGNVFSCSVMHEALHNHYTQKSLSLSLGK
modifications: sialic acid added to the glycans by co-expressed α-2,6-sialic acid transferase
notes: Homodimer; also called IgETRAP; FcεRIαECD-Fc2 + a2,6-ST
B2: FcεRIαECD-Fc2 (Fc fusion)
chain: VPQKPKVSLNPPWNRIFKGENVTLTCNGNNFFEVSSTKWFHNGSLSEETNSSLNIVNAKFEDSGEYKCQHQQVNESEPVYLEVFSDWLLLQASAEVVMEGQPLFLRCHGWRNWDVYKVIYYKDGEALKYWYENHNISITNATVEDSGTYYCTGKVWQLDYESEPLNITVIKAPREKYWLQRNTGRGGEEKKGSKEKEEQEERETKTPECPSHTQPLGVFLFPPKPKDTLMISRTPEVTCVVVDVSQEDPEVQFNWYVDGVEVHNAKTKPREEQFNSTYRVVSVLTVLHQDWLNGKEYKCKVSNKGLPSSIEKTISKAKGQPREPQVYTLPPSQEEMTKNQVSLTCLVKGFYPSDIAVEWESNGQPENNYKTTPPVLDSDGSFFLYSRLTVDKSRWQEGNVFSCSVMHEALHNHYTQKSLSLSLGK
notes: Made in CHO DG44 cells without the sialic acid transferase; Homodimer joined through the hinge cysteine; also called polypeptide dimer
B3: FcεRIαECD-Fc3 (Fc fusion)
chain: VPQKPKVSLNPPWNRIFKGENVTLTCNGNNFFEVSSTKWFHNGSLSEETNSSLNIVNAKFEDSGEYKCQHQQVNESEPVYLEVFSDWLLLQASAEVVMEGQPLFLRCHGWRNWDVYKVIYYKDGEALKYWYENHNISITNATVEDSGTYYCTGKVWQLDYESEPLNITVIKAPREKYWLQAQPQAEGSLAKATTAPATTRNTGRGGEEKKGSKEKEEQEERETKTPECPSHTQPLGVFLFPPKPKDTLMISRTPEVTCVVVDVSQEDPEVQFNWYVDGVEVHNAKTKPREEQFNSTYRVVSVLTVLHQDWLNGKEYKCKVSNKGLPSSIEKTISKAKGQPREPQVYTLPPSQEEMTKNQVSLTCLVKGFYPSDIAVEWESNGQPENNYKTTPPVLDSDGSFFLYSRLTVDKSRWQEGNVFSCSVMHEALHNHYTQKSLSLSLGK
notes: Made in CHO DG44 cells without the sialic acid transferase; Homodimer; also called polypeptide dimer
B4: FcεRIαECD-Fc3ST (Fc fusion)
chain: VPQKPKVSLNPPWNRIFKGENVTLTCNGNNFFEVSSTKWFHNGSLSEETNSSLNIVNAKFEDSGEYKCQHQQVNESEPVYLEVFSDWLLLQASAEVVMEGQPLFLRCHGWRNWDVYKVIYYKDGEALKYWYENHNISITNATVEDSGTYYCTGKVWQLDYESEPLNITVIKAPREKYWLQAQPQAEGSLAKATTAPATTRNTGRGGEEKKGSKEKEEQEERETKTPECPSHTQPLGVFLFPPKPKDTLMISRTPEVTCVVVDVSQEDPEVQFNWYVDGVEVHNAKTKPREEQFNSTYRVVSVLTVLHQDWLNGKEYKCKVSNKGLPSSIEKTISKAKGQPREPQVYTLPPSQEEMTKNQVSLTCLVKGFYPSDIAVEWESNGQPENNYKTTPPVLDSDGSFFLYSRLTVDKSRWQEGNVFSCSVMHEALHNHYTQKSLSLSLGK
modifications: sialic acid added to the glycans by co-expressed α-2,6-sialic acid transferase
notes: Homodimer; also called FcεRIαECD-Fc3 + a2,6-ST; polypeptide dimer

Assays:
human IgE = human IgE (human, UniProt P01854-1 1-428); experiment: cell-based or functional assay
[1] = target: IgE (Experimental Example 4); experiment: cell-based or functional assay
IgE [2] = target: T1, IgE; experiment: SPR, ProteOn XPR36, IgE coated on GLC chip, analyte flowed
Method: (§1) Here, the experiments were conducted by identifying zero base using 25 mM NaOH as a regeneration buffer, and then repeating the above steps. Thereafter, a binding curve was identified using a protein binding analyzer (ProteOn XPR36, Bio-Rad Laboratories, Inc., USA).

[3] = target: T4, IgG Fc gamma receptor IIIB (UniProt O75015 20-208, limits assumed); experiment: BLI response at 4 uM, FcγRIIIB immobilised on AR2G biosensor
T4 construct: Bought recombinant protein immobilised on an AR2G biosensor; also called FcγRIIIB
Method: (§2) Specifically, FcγRI, FcγRIIA, FcγRIIB, FcγRIIIA, and FcγRIIIB recombinant proteins (R & D Systems Inc., 5 μg/ml) which are Fc gamma receptors were immobilized in 300 mM acetate buffer (pH 5) on the activated AR2G biosensor. As a running buffer, PBS containing 0.1% Tween-20 and 1% bovine serum was used. All measurements were carried out at 30° C. with a sample plate shaker at a rate of 1,000 rpm.

IgG Fc gamma receptor I = target: T5, IgG Fc gamma receptor I (UniProt P12314 16-288); experiment: BLI (Octet RED384), FcγRI immobilised on AR2G biosensor, IgETRAP in solution
T5 construct: Bought recombinant protein immobilised on an AR2G biosensor; also called FcγRI
Method: as §2

[4] = target: T2, IgG Fc gamma receptor IIA; experiment: BLI (Octet RED384), FcγRIIA immobilised on AR2G biosensor, IgETRAP in solution
Method: as §2

[5] = target: T3, IgG Fc gamma receptor IIB; experiment: BLI (Octet RED384), FcγRIIB immobilised on AR2G biosensor, IgETRAP in solution
Method: as §2

IgE [6] = target: T1, IgE; experiment: SPR (ProteOn XPR36), IgE coated on the GLC sensor chip, IgETRAP flowed at 0, 3.2, 6.3, 12.5, 25 and 50 nM
IgE [7] = target: T1, IgE; experiment: kinetic binding measurement of Table 3, KD against omalizumab as reference; the end is tied to FcεRIαECD-Fc2ST by 'exhibits the highest IgE-binding affinity which is 69-fold higher than omalizumab'
Method: as §1

T4 sequence (O75015 20-208 limits assumed): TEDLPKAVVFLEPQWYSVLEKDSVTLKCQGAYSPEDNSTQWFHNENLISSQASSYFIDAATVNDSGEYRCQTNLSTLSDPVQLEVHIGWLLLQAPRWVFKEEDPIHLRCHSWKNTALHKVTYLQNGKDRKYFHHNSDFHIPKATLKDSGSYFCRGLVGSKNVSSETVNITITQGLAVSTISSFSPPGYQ
T5 sequence (P12314 16-288 limits assumed): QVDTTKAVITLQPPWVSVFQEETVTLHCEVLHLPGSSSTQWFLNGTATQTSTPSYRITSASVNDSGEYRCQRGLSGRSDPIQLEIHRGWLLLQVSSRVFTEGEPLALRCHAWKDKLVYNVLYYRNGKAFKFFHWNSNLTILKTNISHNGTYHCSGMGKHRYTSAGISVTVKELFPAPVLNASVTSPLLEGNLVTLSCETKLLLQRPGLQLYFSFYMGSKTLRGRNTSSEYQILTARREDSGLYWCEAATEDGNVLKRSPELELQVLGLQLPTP

| Binder | IC50, inhibition of β-hexosaminidase secretion by human FcεRI-expressing mouse bone marrow-derived mast cells (human IgE) [µg/mL] | fold higher inhibitory ability on mast cell activity than Xolair (human IgE) [fold] | IC50 (read off the curve); inhibition ratio (%) of beta-hexosaminidase release from mouse bone marrow-derived mast cells, dimer pre-mixed with IgE at 1 ug/mL [1] [µg/mL] | fold better KD than omalizumab (IgE [2]) [fold] | fold better kd than omalizumab (IgE [2]) [fold] | fold weaker ka than omalizumab (IgE [2]) [fold] | binding result [3] | binding result (IgG Fc gamma receptor I) | binding result [4] | binding result [5] | Kd (IgE [6]) [pM] | fold change of equilibrium dissociation constant (KD) against omalizumab (printed as 'higher'; meant as higher affinity) (IgE [7]) [fold] |
| --- | --- | --- | --- | --- | --- | --- | --- | --- | --- | --- | --- | --- |
| B1 | ~0.0112 | 58 | ~0.5 | 69 | 106 | 1.5 | no binding (tested: 4 uM) | no binding (tested: 4 uM) | no binding (tested: 4 uM) | no binding (tested: 4 uM) | 215 | 22 to 69 |
| B2 | – | – | – | 38 | 73 | 1.9 | – | – | – | – | – | – |
| B3 | – | – | – | 22 | 45 | 2 | – | – | – | – | – | – |
| B4 | – | – | – | 24 | 40 | 1.7 | – | – | – | – | – | – |
